8 molecules from article PMC9934072, “The mechanism of thia-Michael addition catalyzed by LanC enzymes” (Proceedings of the National Academy of Sciences of the …, 2023) can be followed below.

Square brackets hold non-standard residues; d marks the D form. Ends that are not written are not given here. Dhb = C/C=C(\N)C(=O)O

Assay [1] has as its target (Z)-Dhb-containing 13-mer Erk peptide (DHTGFL-Dhb-EYVATR).
For assay [2], the target named is T1, human LanCL1, wild type (His6-LanCL1) (human, UniProt O43813 1-399).
T1 construct: LanCL1 (LanC-like protein 1), human; The tag is named on the protein for crystallisation; for the fluorescence polarisation nothing is said of it; also called WT LanCL1; native LanCL1; source: E. coli Rosetta(DE3), pET15b, purified (HisTrap, Superdex 200)
The experiment in a line: crystal structure; cocrystals of His6-LanCL1 with GSH soaked in precipitant solution with 2 to 5 mM Dhb-Erk peptide (30, 60 or 90 min); 1.91 Å; the crystal holds the product of GSH addition to the peptide. The conditions noted are these: both partners purified.

In assay [3] the target is T2, LanCL1 Wild Type (human LanC-like protein 1) (human, UniProt O43813 1-399).
T2 construct: LanC-like protein 1 (LanCL1), human; also called LanCL1 WT; WT-LanCL1; source: E. coli Rosetta 2 (DE3), purified (HisTrap Ni-NTA, PD-10 desalting)
Description: fluorescence polarisation; competition: 20 μM LanCL1 WT, 20 nM fluorescein-Dha-Erk, acetyl peptide from 1000 μM in 2-fold dilutions; 15 min incubation; triplicates; dose-response fit, Ki = IC50/(1+[L]/Kd). The settings on record: both partners purified.

T2 sequence (O43813 whole entry): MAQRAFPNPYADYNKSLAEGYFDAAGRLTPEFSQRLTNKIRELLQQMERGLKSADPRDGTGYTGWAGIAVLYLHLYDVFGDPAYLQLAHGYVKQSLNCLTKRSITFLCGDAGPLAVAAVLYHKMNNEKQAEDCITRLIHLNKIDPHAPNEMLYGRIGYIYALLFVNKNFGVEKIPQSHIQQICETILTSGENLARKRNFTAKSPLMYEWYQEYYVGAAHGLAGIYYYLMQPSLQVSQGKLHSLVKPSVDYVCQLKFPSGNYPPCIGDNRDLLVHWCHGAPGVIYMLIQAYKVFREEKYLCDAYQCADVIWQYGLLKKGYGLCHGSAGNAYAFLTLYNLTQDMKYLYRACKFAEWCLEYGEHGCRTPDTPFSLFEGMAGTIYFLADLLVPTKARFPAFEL
T1 sequence (O43813 whole entry): as above

“LanCL1 C264A (from UniProt O43813 1-399) (enzyme)” gave a K (m,peptide) of GSH addition to (Z)-Dhb-Erk peptide (LC-MS initial rates, saturating GSH) in assay [1] of 85 µM. On the same count and under the same terms, the value for “LanCL1 C264A/H277Y (from UniProt O43813 1-399) (enzyme)” was 69 µM.

For the molecule “LanCL1 C264A/H277K (from UniProt O43813 1-399) (enzyme)”, the kcat/K (m,peptide) of GSH addition to (Z)-Dhb-Erk peptide; substrate saturation could not be achieved in assay [1] was 2.67 M⁻¹ s⁻¹. For the molecule “LanCL1 C264A/H277A (from UniProt O43813 1-399) (enzyme)”, the K (m,peptide) of GSH addition to (Z)-Dhb-Erk peptide (LC-MS initial rates, saturating GSH) in assay [1] came out at 240 µM. In turn, “LanCL1 C264A/H277N (from UniProt O43813 1-399) (enzyme)” had a K (m,peptide) of GSH addition to (Z)-Dhb-Erk peptide (LC-MS initial rates, saturating GSH) in assay [1] of 417 µM. In the case of “LanCL1 C264A/H277D (from UniProt O43813 1-399) (enzyme)”, the kcat/K (m,peptide) of GSH addition to (Z)-Dhb-Erk peptide; substrate saturation could not be achieved in assay [1] was 6.17 M⁻¹ s⁻¹.

B1: (Z)-Dhb-containing 13-mer Erk peptide (DHTGFL-Dhb-EYVATR) (peptide)
peptide: DHTGFL[Dhb]EYVATR
modifications: also: in the crystal Dhb reacted with GSH to form a methyllanthionine
notes: In PDB 8CZK density was seen only for the GFL-Dhb-EY segment, covalently joined to glutathione; also called Dhb-Erk; Dhb-Erk peptide
As to B1, the binding result in assay [2] is reported as “binds”.

B2: acetyl-Ala-Erk peptide (peptide)
peptide: Ac-DHTGFLAEYVATR
notes: Numbers count on: the synthetic 13-mer; Its preparation is not described; also called Ac-Ala-Erk
In the case of B2, in assay [3], the IC50 came to 850 ± 490 µM and the Ki was determined as 849 ± 489 µM.
